Measurements taken from patent US20180209962A1, “SCREENING METHOD USING INDUCED NEURONS” (KYOTO UNIVERSITY, priority 2014, published 2018).

What was measured:
[1] = molecular target: tau oligomer secreted into the culture supernatant by human tauopathy iNs (FTDP-17 patient, MAPT intron 10+14 C>T) (human) (UniProt P10636); assay: cell-based or functional assay
[2] = molecular target: tau oligomer secreted into the culture supernatant by human tauopathy iNs (FTDP-17 patient, MAPT intron 10+14 C>T) (human) (UniProt P10636); assay: immunodepletion of human tauopathy iN culture supernatant with antibody-bound beads; tau oligomer measured by ELISA

Sequence of tau oligometric complex 1 antibody (TOC1 antibody) (heavy): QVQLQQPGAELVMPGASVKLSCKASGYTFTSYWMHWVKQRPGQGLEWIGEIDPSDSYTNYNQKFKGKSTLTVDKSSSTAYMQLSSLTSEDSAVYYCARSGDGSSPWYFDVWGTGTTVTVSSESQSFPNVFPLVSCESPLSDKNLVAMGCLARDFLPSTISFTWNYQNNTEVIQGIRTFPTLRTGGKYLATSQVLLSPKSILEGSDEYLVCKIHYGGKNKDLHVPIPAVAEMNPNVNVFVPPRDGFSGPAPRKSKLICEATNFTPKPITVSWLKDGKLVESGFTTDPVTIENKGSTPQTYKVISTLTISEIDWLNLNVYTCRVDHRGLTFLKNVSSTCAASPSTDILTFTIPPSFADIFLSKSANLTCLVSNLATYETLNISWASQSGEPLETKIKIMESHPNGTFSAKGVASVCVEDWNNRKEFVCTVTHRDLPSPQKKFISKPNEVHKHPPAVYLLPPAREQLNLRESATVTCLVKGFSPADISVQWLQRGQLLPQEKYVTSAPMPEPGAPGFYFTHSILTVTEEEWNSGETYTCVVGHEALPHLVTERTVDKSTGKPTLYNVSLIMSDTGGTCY
Sequence of tau oligometric complex 1 antibody (TOC1 antibody) (light): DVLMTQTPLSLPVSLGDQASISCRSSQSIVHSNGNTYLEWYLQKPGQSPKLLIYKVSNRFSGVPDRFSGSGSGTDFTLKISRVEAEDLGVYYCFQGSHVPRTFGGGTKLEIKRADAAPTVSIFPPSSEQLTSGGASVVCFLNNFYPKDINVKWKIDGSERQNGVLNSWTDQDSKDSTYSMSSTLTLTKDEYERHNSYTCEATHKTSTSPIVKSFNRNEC
Sequence of tau oligomer secreted into the culture supernatant by human tauopathy iNs (FTDP-17 patient, MAPT intron 10+14 C>T) (human) (P10636 other isoform, or with tags, fused parts or gaps limits assumed): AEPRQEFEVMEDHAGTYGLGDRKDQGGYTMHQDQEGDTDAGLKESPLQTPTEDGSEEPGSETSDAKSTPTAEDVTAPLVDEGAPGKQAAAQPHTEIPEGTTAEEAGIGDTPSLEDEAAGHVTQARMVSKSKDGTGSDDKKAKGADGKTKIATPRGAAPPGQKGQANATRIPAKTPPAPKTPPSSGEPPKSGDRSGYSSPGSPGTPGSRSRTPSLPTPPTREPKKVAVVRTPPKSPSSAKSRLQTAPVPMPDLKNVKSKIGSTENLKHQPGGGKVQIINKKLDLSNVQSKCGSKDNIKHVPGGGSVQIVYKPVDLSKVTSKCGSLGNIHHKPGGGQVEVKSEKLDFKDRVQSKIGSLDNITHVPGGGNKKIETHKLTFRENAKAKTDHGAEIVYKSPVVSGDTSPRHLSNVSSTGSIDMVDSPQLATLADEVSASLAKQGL

tau oligometric complex 1 antibody (TOC1 antibody)
survival rate of human normal iNs two days after adding the immunodepleted culture supernatant [1]: 130%
amount of tau oligomer left in the culture supernatant after immunodepletion [2]: 27%
